Experimental data reported in US20220135701A1 (Genentech, published 2022).
Read-outs that look alike come from different tables or passages of the source.

What was measured:
Experiment in all cases: cell-based or functional assay
[1] = molecular target: T1, human MerTK on human macrophages (human, UniProt Q12866 21-999)
T1 sequence: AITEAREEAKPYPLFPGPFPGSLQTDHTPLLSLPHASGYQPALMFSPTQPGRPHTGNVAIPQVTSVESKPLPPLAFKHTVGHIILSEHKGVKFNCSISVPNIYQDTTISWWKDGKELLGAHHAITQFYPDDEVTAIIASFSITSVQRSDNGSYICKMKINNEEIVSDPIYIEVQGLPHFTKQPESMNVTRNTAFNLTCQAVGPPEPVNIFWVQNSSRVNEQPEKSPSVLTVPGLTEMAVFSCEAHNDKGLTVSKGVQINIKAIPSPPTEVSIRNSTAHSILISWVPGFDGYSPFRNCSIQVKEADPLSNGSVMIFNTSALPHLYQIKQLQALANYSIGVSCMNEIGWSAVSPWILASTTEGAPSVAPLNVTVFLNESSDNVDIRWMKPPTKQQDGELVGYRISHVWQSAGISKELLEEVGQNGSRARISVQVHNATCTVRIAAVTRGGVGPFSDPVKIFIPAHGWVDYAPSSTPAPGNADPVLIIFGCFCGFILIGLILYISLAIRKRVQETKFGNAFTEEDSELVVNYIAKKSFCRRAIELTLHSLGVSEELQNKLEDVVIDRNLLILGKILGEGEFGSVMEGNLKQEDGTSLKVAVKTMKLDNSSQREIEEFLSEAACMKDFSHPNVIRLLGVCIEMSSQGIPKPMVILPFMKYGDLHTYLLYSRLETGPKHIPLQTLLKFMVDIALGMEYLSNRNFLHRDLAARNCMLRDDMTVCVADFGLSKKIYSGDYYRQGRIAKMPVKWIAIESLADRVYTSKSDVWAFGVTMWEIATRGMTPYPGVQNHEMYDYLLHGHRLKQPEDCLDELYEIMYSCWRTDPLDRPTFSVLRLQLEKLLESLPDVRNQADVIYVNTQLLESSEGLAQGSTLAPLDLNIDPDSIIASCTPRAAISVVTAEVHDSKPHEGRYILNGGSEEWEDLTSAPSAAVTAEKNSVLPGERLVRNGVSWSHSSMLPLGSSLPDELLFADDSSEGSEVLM

[2] = molecular target: T2, mouse MerTK on mouse macrophages (mouse, UniProt Q60805 19-994)
T2 sequence (looked up): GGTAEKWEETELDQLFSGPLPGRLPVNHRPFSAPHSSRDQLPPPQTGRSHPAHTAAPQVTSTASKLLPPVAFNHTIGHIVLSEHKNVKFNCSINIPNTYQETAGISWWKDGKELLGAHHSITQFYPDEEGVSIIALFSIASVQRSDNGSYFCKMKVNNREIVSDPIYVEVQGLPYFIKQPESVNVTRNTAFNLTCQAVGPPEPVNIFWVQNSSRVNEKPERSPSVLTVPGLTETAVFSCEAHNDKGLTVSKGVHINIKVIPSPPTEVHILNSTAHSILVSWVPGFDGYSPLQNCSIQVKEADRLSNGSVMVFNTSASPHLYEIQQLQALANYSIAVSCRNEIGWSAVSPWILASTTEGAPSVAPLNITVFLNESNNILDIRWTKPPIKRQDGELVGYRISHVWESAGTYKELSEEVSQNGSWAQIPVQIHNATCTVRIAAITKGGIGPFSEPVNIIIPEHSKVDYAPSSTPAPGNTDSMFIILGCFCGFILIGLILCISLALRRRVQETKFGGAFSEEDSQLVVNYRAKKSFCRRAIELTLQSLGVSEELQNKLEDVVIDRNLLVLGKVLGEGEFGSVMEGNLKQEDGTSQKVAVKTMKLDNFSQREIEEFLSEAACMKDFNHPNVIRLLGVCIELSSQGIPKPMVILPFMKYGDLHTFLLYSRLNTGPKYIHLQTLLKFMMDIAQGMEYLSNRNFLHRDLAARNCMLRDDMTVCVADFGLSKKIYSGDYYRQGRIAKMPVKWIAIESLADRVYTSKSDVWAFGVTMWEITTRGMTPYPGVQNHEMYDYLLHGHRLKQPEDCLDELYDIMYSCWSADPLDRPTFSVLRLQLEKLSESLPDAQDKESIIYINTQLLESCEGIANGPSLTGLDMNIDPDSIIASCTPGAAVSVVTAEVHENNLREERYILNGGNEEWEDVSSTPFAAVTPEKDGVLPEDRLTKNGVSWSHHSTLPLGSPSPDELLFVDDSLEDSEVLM

[3] = molecular target: T1, human MerTK on human macrophages; remark: listed apart in the source

- IC50 (nM), efferocytosis by human macrophages, Average (3 Donors) [1]: 0.41 nM
- IC50 (nM), efferocytosis by human macrophages, Donor A [1]: 0.42 nM
- IC50 (nM), efferocytosis by human macrophages, Donor B [1]: 0.53 nM
- IC50 (nM), efferocytosis by human macrophages, Donor C [1]: 0.27 nM
- Max Inhibition (%), efferocytosis by human macrophages, Average (3 Donors) [1]: 69%
- Max Inhibition (%), efferocytosis by human macrophages, Donor A [1]: 76%
- Max Inhibition (%), efferocytosis by human macrophages, Donor B [1]: 73%
- Max Inhibition (%), efferocytosis by human macrophages, Donor C [1]: 60%
- IC50 (nM), efferocytosis by mouse macrophages, Average [2]: 0.91 nM
- IC50 (nM), efferocytosis by human macrophages, Average (3 Donors) [3]: 0.41 nM
B1: h10F7.v16 (antibody, V domains shown)
VH: EVQLVESGGGLVQPGGSLRLSCAVSGFSLSGYAMSWVRQAPGKGLEYIGVISSSGSSYYPSWAKGRFTISKDNSKNTLYLQMGSLRAEDMAVYYCARVQFYVGYAVYGYGIIDRLDLWGQGTLVTVSS
VL: DIVLTQSPDSLAVSLGERATINCQSSKSVYNNNWLSWYQQKPGQPPKLLIYRASTLESGVPDRFSGSGSGTDFTLTISSLQAEDVAVYFCAGGYSSSSSANAFGGGTKVEIK
notes: Humanized, human IgG1; also called 10F7 Fully Humanized; 10F7 Humanized polished mAb
